# Data from the supplement of paper PMC6755084.
# B1: F1*; the commonest letter at each place (parent)
# chain: GAGACCGCAACTGAAAAGTTGTTATCACTTGTCGTAAGACACTTTGGATGGGTTGAAGTTCTGCACGTAGAAGCAAAAGGC
# Variants of: B1
# Assay: fraction ligated after 30 min (ligated reads / total reads); higher = more ligase activity
# Conditions: with F1*sub RNA substrate (template-directed ligation), 42 °C
# How it was run: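 The ligase ribozyme variants were produced by PCR amplification of oligo-pool templates, T7 transcription and purification on gel. Their ligated and unligated forms were gel-separated, then reverse transcribed with barcoded primers before MiSeq sequencing. Core bases were filtered at a quality of ≥20, and fraction ligated per variant was ligated reads over total reads.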
row,Variant,fraction ligated
1,T30G A57C,0.806
2,C40G T49C,0.365
3,T23A T32G,0.829
4,T25C C33T,0.786
5,C33G G34C,0.843
6,A37G C42A,0.859
7,A27G G50A,0.244
8,A27G G50C,0.161
9,G31A C33G,0.824
10,T32A T49A,0.568
11,T35A T44G,0.821
12,G31C A56C,0.155
13,G31C A56T,0.694
14,T23C G50C,0.258
15,T32A A48T,0.0494
16,T30A C42G,0.847
17,T29A,0.848
18,C28G T43C,0.798
19,A39C G46A,0.802
20,T32C A37G,0.815
21,C42A T49A,0.797
22,T30G C40T,0.819
23,G31C T44A,0.775
24,T23A T29C,0.797

row,Variant,fraction ligated
1,A36G C40G,0.841
2,T29C C33T,0.816
3,C42G A57T,0.834
4,T32C A39T,0.778
5,A37G T43G,0.814
6,G46T,0.791
7,T23A G47T,0.09
8,T35A A37T,0.86
9,T30C T35G,0.795
10,A27G C33A,0.8
11,T43G G47T,0.52
12,A37G G46A,0.818
13,A36C C40A,0.804
14,T23A G38C,0.799
15,C28T G55T,0.765
16,A37T G38T,0.838
17,A36T G38C,0.833
18,C28G T49A,0.656
19,T35A A41T,0.831
20,C40G T45C,0.669
21,T25G T30A,0.674
22,C33A A48T,0.0887
23,C33A A48G,0.79
24,C40G C42G,0.826

row,Variant,fraction ligated
1,G31C G47T,0.0589
2,G38C,0.825
3,G31C T32A,0.803
4,A27C G47T,0.126
5,A36G A57G,0.88
6,C33G G55T,0.777
7,T23G G47C,0.0263
8,T23C G55T,0.786
9,A48C G55T,0.5
10,C26A A27C,0.842
11,C26A A27T,0.747
12,T32G T44A,0.807
13,T35G A41C,0.808
14,G34T A57T,0.81
15,A39T G50T,0.413
16,G46C T49A,0.344
17,C28G T30C,0.794
18,A39C T44G,0.801
19,G31C G50T,0.108
20,A24C G31C,0.038
21,T32C G55A,0.771
22,A24C A56G,0.0302
23,A24C A56T,0.0488
24,T30C G46A,0.807

row,Variant,fraction ligated
1,A27C A48T,0.78
2,C40G T44C,0.775
3,A24G C40A,0.731
4,A39T A41T,0.775
5,C26T T29A,0.845
6,T29C T44C,0.822
7,A27T C33G,0.838
8,T29C A37G,0.824
9,T35C G38C,0.815
10,T25A A36T,0.752
11,A37T T44G,0.825
12,A27C G38A,0.807
13,C33T G55C,0.82
14,A37T G46C,0.8
15,A36C,0.833
16,C26G C33A,0.473
17,A36T C42G,0.835
18,A36T C42A,0.834
19,G38C A56G,0.7
20,C28T A41G,0.789
21,A24T A39C,0.636
22,T25G C42A,0.737
23,A39T C40T,0.809
24,T35A T45G,0.408

row,Variant,fraction ligated
1,T30C T45A,0.668
2,T30C T45G,0.174
3,C42G T45G,0.291
4,T25G C40T,0.732
5,A24C G55C,0.158
6,T45C A48T,0.00623
7,C28T G38T,0.795
8,A37T A48T,0.675
9,C26T C33T,0.829
10,T23C C26T,0.779
11,T23C C26A,0.371
12,A36C A57T,0.844
13,G38T T49A,0.757
14,G38T T49G,0.76
15,T32G G34C,0.726
16,T32G G34A,0.83
17,T30A A39C,0.777
18,A27G A36G,0.805
19,A37T T43C,0.806
20,G34T T43C,0.782
21,C28G T35C,0.802
22,C26T A41C,0.771
23,C26T A41G,0.813
24,T23C T29C,0.779

row,Variant,fraction ligated
1,C33A G55C,0.77
2,T32C T44A,0.751
3,T29A A39T,0.831
4,G34A,0.848
5,T23C T45G,0.027
6,T49A G55T,0.24
7,T23C T25C,0.782
8,C40T T45G,0.195
9,C40T T45A,0.791
10,A24T G34A,0.789
11,A39C G55T,0.802
12,A41G T45A,0.482
13,A24G A37C,0.796
14,A37G A56T,0.819
15,A37T A39G,0.837
16,G46T A56G,0.187
17,A27C C42T,0.816
18,A41T G47T,0.418
19,G38T T45G,0.0535
20,G31A A39C,0.78
21,G31A A39G,0.795
22,T25A T45C,0.0183
23,T25A T45G,0.029
24,T25A T45A,0.0271

row,Variant,fraction ligated
1,A27T G46A,0.817
2,A27T G31T,0.862
3,G34C C42A,0.852
4,T23C T43G,0.745
5,A27C A39C,0.785
6,C42G A56G,0.792
7,A24G G38T,0.745
8,A27T G50T,0.616
9,T43A A56C,0.79
10,A41C,0.775
11,A41G,0.802
12,T30C T32G A39C A41G,0.852
13,C26G A37G,0.762
14,A24G T44C,0.763
15,C26A G50T,0.0739
16,T25C G47C,0.0468
17,T25C G47T,0.208
18,T25C C26A,0.0548
19,C28G C40G,0.812
20,A24G A39G,0.827
21,G31T A56T,0.755
22,A24G G55T,0.629
23,A24G G55A,0.685
